Where “and” joins values, the source holds several entries; their conditions need not be identical. Equal entries are not always repeated. Entries after “also recorded” stand apart in the source; their conditions may differ.
What was measured:
Aβ40 [1] = experiment: SMFS of Aβ40 interaction; format: binding; details: Aβ40 vs Aβ42, neutral pH; ref [10]
Aβ40 [2] = details: cited from earlier work
Aβ42 [3] = target: T1, Aβ42 (Homo sapiens, UniProt P05067); experiment: Dynamic force spectroscopy; format: binding; details: for Lifetime of the dimer: calculated by k^−1off, SD from five independent experiments
T1 sequence (P05067 672-713 limits assumed): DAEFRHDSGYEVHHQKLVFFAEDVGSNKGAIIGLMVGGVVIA

Aβ42 [4] = target: T1, Aβ42; experiment: Single-molecule AFM force spectroscopy; format: binding; details: pH 7
[5] = SDS-page gel experiment, monomer state of Aβ42; format: physicochemical; details: diluted in different pH buffers from DMSO stock solution (Fig. S1)
Aβ42 [6] = target: T1, Aβ42; experiment: Contour length analysis of Aβ42 dimers; format: binding; details: for Prevailing region of interpeptide interaction: in words
[7] = single representative curve (Fig. 2A), WLC fit, ALR ~4,000 pN/s
[8] = pH 7, area under Gaussian curve

Aβ40: Aβ protein containing 40 residues; Aβ42 differs by two extra C terminal residues (I41 and A42)
Dimer lifetime relative to Aβ42 (Aβ40 [1]): four times shorter
Dimer lifetime relative to monomer dynamics (Aβ40 [2]; Aβ40 dimer lifetime vs monomer dynamics, ref [10]): ~10^6 times
Conformer population, major interactions (L0 and L1) (Aβ40 [2]; pH 7, N-terminal segment interactions, ref [10]): 74%
Lifetime of misfolded Aβ40 dimers (Aβ40 [2]; ref [10]): 0.1 s
Rupture forces of dimers compared to Aβ42 (Aβ40 [2]; result in words, reference not given, Aβ40 study is ref [10]): quite similar to those for Aβ42

Aβ42: Aβ42 terminated with cysteine at N-terminus (AnaSpec, Inc., Fremont, CA)
Lifetime of dimers (in words) (Aβ42 [3]; SMFS/DFS, pH not given): in the range of a second; also recorded: higher than that of Aβ40
Lifetime of the dimer (Aβ42 [3]; pH 2.7): 2.5±0.7 s and 2.5 s and 2.5 (±0.7) s
Increase of the dimer lifetime, pH 2.7 vs pH 7 (Aβ42 [3]; pH 2.7 vs pH 7): ~5 fold
Lifetime of the dimer (Aβ42 [3]; pH 7): 0.46 (±0.25) s
ΔG, barrier height for dimer dissociation (Aβ42 [3]; pH 7, calculated from koff): ~ 28.3 kBT
Rupture force of representative curves with various contour lengths (Aβ42 [4]; four curves of Fig. 4A, similar ALR (~20,000 pN/s)): 150±20 pN
Contour length, representative F-D curve (Aβ42 [4]; [7]): ~ 58 nm
Rupture force, representative F-D curve (Aβ42 [4]; [7]): ~ 83 pN
Monomer state by SDS-page gel [5]: The monomer state of Aβ42 diluted in different pH buffers from the stock solution was confirmed
Prevailing region of interpeptide interaction (Aβ42 [6]; acidic pH (2.7)): interaction within the peptide center prevailed
Conformer population, model L3 (C-termini), change vs pH 7 (Aβ42 [6]; pH 2.7 vs pH 7, result in words): three-fold drop in the interaction between the C-termini (model L3)
Conformer population, model L0 (interactions very close to N-termini) (Aβ42 [6]; [8]): 13%
Conformer population, model L1 (middle segments) (Aβ42 [6]; [8]): 29%
Prevailing region of interpeptide interaction (Aβ42 [6]; pH 7): Interaction via C-terminal segments prevailed
Contour length, Gaussian center L0 (Aβ42 [6]; pH 7 and 2.7, L0): around 35 nm
Contour length, Gaussian center L1 (Aβ42 [6]; pH 7 and 2.7, L1): ~41 nm
Contour length, Gaussian center L2 (Aβ42 [6]; pH 7 and 2.7, L2): ~47 nm
Contour length, Gaussian center L3 (Aβ42 [6]; pH 7 and 2.7, L3): ~53 nm
